# B1: Ubiquitin-associated protein 2-like (Homo sapiens), Q14157 (parent)
# chain: MMTSVGTNRARGNWEQPQNQNQTQHKQRPQATAEQIRLAQMISDHNDADFEEKVKQLIDITGKNQDECVIALHDCNGDVNRAINVLLEGNPDTHSWEMVGKKKGVSGQKDGGQTESNEEGKENRDRDRDYSRRRGGPPRRGRGASRGREFRGQENGLDGTKSGGPSGRGTERGRRGRGRGRGGSGRRGGRFSAQGMGTFNPADYAEPANTDDNYGNSSGNTWNNTGHFEPDDGTSAWRTATEEWGTEDWNEDLSETKIFTASNVSSVPLPAENVTITAGQRIDLAVLLGKTPSTMENDSSNLDPSQAPSLAQPLVFSNSKQTAISQPASGNTFSHHSMVSMLGKGFGDVGEAKGGSTTGSQFLEQFKTAQALAQLAAQHSQSGSTTTSSWDMGSTTQSPSLVQYDLKNPSDSAVHSPFTKRQAFTPSSTMMEVFLQEKSPAVATSTAAPPPPSSPLPSKSTSAPQMSPGSSDNQSSSPQPAQQKLKQQKKKASLTSKIPALAVEMPGSADISGLNLQFGALQFGSEPVLSDYESTPTTSASSSQAPSSLYTSTASESSSTISSNQSQESGYQSGPIQSTTYTSQNNAQGPLYEQRSTQTRRYPSSISSSPQKDLTQAKNGFSSVQATQLQTTQSVEGATGSAVKSDSPSTSSIPPLNETVSAASLLTTTNQHSSSLGGLSHSEEIPNTTTTQHSSTLSTQQNTLSSSTSSGRTSTSTLLHTSVESEANLHSSSSTFSTTSSTVSAPPPVVSVSSSLNSGSSLGLSLGSNSTVTASTRSSVATTSGKAPPNLPPGVPPLLPNPYIMAPGLLHAYPPQVYGYDDLQMLQTRFPLDYYSIPFPTPTTPLTGRDGSLASNPYSGDLTKFGRGDASSPAPATTLAQPQQNQTQTHHTTQQTFLNPALPPGYSYTSLPYYTGVPGLPSTFQYGPAVFPVAPTSSKQHGVNVSVNASATPFQQPSGYGSHGYNTGVSVTSSNTGVPDISGSVYSKTQQSFEKQGFHSGTPAASFNLPSALGSGGPINPATAAAYPPAPFMHILTPHQQPHSQILHHHLQQDGQTGSGQRSQTSSIPQKPQTNKSAYNSYSWGAN
# B2: DNA damage-inducible transcript 3 protein (Homo sapiens), P35638 (parent)
# chain: MAAESLPFSFGTLSSWELEAWYEDLQEVLSSDENGGTYVSPPGNEEEESKIFTTLDPASLAWLTEEEPEPAEVTSTSQSPHSPDSSQSSLAQEEEEEDQGRTRKRKQSGHSPARAGKQRMKEKEQENERKVAQLAEENERLKQEIERLTREVEATRRALIDRMVNLHQA
# Variants of: B1
# Conditions: with G3BP1, Q13283
row,Variant,effect of a mutation on the interaction
1,F518A;F523A,disrupting interaction strength

# Variants of: B1
# Conditions: with G3BP1, Q13283
# Remark: another data set of the same source
# Target sequence in this assay (Q13283 whole entry, looked up): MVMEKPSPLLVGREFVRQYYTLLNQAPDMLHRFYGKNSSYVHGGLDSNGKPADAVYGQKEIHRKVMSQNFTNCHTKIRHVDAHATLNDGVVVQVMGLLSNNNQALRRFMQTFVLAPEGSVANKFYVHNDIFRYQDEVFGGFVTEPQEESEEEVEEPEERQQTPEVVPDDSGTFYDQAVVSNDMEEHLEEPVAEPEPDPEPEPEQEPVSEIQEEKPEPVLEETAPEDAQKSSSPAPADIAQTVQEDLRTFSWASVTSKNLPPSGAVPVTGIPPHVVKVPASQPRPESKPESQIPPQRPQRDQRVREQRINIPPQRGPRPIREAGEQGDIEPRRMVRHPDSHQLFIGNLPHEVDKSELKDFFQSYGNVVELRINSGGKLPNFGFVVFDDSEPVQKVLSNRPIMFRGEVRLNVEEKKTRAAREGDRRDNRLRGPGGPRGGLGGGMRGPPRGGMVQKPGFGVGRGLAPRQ
row,Variant,effect of a mutation on the interaction
1,F518A;F523A,decreasing interaction strength

# Variants of: B2
# Conditions: with G3BP1, Q13283
# Target sequence in this assay (Q13283 whole entry, looked up): as above
row,Variant,effect of a mutation on the interaction
1,F10A;G11A,disrupting interaction strength

# Source: IntAct's records for PubMed 34799561
